Patent publication US20140348785A1

Tests used:
[1] = molecular target: biotinylated gp41 MPER peptide RRR-(656-683)-RRK-biotin (HIV-1); assay: SPR: biotinylated MPER peptide on an SA chip, Fab as analyte, 1:1 Langmuir fit
[2] = molecular target: soluble gp41 MPER peptide RRR-(656-683)-RRR (HIV-1); assay: SPR: variant IgG captured on an anti-human IgG chip, MPER peptide as analyte

| Binder | Kd [1] [nM] | fold decrease in affinity relative to wild type 10E8 [2] [fold] |
| --- | --- | --- |
| 10E8 Fab (antigen binding fragment of 10E8) (Fab, V domains shown) VH: EVQLVESGGGLVKPGGSLRLSCSASGFDFDNAWMTWVRQPPGKGLEWVGRITGPGEGWSVDYAAPVEGRFTISRLNSINFLYLEMNNLRMEDSGLYFCARTGKYYDFWSGYPPGEEYFQDWGRGTLVTVSS VL: SYELTQETGVSVALGRTVTITCRGDSLRSHYASWYQKKPGQAPILLFYGKNNRPSGVPDRFSGSASGNRASLTISGAQAEDDAEYYCSSRDKSGSRLSVFGGGTKLTVL | 17 |  |
| 10E8 IgG alanine variant E53A (heavy chain, Kabat) (antibody, V domains shown) VH: EVQLVESGGGLVKPGGSLRLSCSASGFDFDNAWMTWVRQPPGKGLEWVGRITGPGAGWSVDYAAPVEGRFTISRLNSINFLYLEMNNLRMEDSGLYFCARTGKYYDFWSGYPPGEEYFQDWGRGTLVTVSS VL: SYELTQETGVSVALGRTVTITCRGDSLRSHYASWYQKKPGQAPILLFYGKNNRPSGVPDRFSGSASGNRASLTISGAQAEDDAEYYCSSRDKSGSRLSVFGGGTKLTVL |  | 60 |
